Experimental data published in US20140087995A1 (published 2014).
Numbered stars: 1 amine (or outer) side, 2 acyl side, 3 side chain; on linkers, the order of the positions; unused ones are H or OH. Bridge positions count the residues as written; N and C are the ends. Side chains are listed from the residue outwards. Ends that are not written are not given here. * marks the point of attachment. C20 diacid = O=C(O)CCCCCCCCCCCCCCCCCCC(=O)*; γGlu = O=C(O)[C@H](CCC(=O)[*:2])N[*:1]; AEEA = NCCOCCOCC(=O)O

T1: rat calcitonin receptor (rat, UniProt P32214 25-516)
T1 construct: whole, on cells; Used as membranes prepared from the transfected cells; also called rCTR; rat calcitonin (a) receptor
T1 sequence (looked up): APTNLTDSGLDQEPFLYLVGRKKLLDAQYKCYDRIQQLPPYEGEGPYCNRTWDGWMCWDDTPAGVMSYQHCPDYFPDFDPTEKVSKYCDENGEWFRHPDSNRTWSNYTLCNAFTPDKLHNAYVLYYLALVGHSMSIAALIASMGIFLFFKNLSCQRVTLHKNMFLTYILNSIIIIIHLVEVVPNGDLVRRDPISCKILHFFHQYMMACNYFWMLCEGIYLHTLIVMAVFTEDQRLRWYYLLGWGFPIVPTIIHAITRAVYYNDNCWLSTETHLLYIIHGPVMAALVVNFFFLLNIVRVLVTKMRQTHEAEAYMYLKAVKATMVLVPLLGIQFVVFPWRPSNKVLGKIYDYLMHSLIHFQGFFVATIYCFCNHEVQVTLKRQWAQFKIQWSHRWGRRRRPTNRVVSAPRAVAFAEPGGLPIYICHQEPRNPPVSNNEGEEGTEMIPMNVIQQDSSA

T2: human calcitonin receptor (human, UniProt P30988 25-474)
T2 construct: whole, on cells; Used as membranes prepared from the transfected cells (Assay VII); also called hCTR; hCT
T2 sequence (looked up): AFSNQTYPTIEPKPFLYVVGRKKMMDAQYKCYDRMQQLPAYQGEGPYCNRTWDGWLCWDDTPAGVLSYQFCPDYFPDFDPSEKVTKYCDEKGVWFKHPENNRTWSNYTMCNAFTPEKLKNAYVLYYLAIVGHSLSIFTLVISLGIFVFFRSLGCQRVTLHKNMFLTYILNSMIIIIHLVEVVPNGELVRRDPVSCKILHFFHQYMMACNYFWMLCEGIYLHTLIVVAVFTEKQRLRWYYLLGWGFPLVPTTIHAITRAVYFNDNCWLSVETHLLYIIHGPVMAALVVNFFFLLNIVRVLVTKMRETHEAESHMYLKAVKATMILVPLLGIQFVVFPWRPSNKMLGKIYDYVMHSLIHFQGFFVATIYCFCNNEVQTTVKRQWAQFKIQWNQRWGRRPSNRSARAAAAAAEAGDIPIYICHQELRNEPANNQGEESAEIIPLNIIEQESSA

T3: rat amylin receptor (rat calcitonin receptor + rat RAMP 3) (rat, UniProt P32214 25-516; Q9JJ73 23-147)
T3 construct: whole, on cells; Used as membranes prepared from the transfected cells; also called rAmylin-R; rat amylin 3(a) receptor
T3 sequence (looked up) 1: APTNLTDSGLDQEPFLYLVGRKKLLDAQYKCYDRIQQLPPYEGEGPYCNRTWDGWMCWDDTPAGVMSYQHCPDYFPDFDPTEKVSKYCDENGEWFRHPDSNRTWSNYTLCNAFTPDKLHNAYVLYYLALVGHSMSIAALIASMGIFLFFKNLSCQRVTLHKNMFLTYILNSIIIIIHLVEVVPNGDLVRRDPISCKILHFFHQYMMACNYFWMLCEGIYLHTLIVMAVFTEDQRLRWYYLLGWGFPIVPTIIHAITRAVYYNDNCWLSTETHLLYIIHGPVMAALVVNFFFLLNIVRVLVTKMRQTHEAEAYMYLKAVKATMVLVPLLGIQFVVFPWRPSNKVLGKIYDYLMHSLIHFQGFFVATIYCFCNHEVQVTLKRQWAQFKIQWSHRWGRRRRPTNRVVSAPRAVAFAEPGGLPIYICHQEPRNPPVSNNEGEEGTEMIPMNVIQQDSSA
T3 sequence (looked up) 2: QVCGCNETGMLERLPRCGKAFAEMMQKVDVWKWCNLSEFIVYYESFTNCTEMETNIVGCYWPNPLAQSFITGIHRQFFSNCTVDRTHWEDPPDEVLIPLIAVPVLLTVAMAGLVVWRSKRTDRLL

T4: human calcitonin receptor (human, UniProt P30988 25-474)
T4 construct: whole, on cells; Assay used cell membranes of the transfected BHK cells; also called hCTR; hCT
T4 sequence (looked up): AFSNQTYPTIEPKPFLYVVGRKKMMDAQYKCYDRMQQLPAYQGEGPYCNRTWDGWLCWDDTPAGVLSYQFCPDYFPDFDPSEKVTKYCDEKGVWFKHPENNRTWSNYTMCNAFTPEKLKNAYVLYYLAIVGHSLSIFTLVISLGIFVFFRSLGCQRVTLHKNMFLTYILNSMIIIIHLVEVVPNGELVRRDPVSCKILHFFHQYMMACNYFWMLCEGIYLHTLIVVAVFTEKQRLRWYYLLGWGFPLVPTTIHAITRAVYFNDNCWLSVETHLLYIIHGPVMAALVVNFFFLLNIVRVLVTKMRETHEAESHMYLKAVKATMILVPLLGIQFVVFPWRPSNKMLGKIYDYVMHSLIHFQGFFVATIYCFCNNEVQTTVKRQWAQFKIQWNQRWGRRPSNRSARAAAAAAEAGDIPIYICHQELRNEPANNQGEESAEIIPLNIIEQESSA


Tests used:
rat calcitonin receptor [1] = target: T1, rat calcitonin receptor; experiment: ratio IC50 rat calcitonin receptor / IC50 rat amylin receptor (Assays VIII and VI)
[2] = target: T2, human calcitonin receptor; experiment: ratio IC50 human calcitonin receptor / IC50 human amylin receptor (Assays VII and V)
Protocol: The resulting pellet was resuspended, homogenized and centrifuged (20.000 rpm, 15 min) in a buffer containing 20 mM Na-HEPES and 0.1 mM EDTA (pH 7.4, buffer 2). The resulting pellet was resuspended in buffer 2 and protein concentration was measured (BCA protein Assay, Pierce). The homogenate was kept cold during the whole procedure. The membranes were kept at −80° C. until use. The assay was performed in a 384 well Optiplate (PerkinElmer) in a total volume of 40 ul. Membranes were mixed with SPA beads. Final concentration of membranes 35 ng/μL final and SPA beads was 0.05 mg/well. Test-compounds were dissolved in DMSO and further diluted in assay buffer (50 mM Hepes, pH 7.4, 1 mM CaCl2, 5 mM MgCl₂, 0.1% OA and 0.02% Tween20). […] The final mixture was incubated with shaking at 400 rpm for 120 min at 25° C. prior to centrifugation (1500 rpm, 10 min). Samples were analyzed on TopCounter™ (Packard). The IC₅₀ was calculated using (one site binding competition analysis) GraphPad Prism5 as a measure of receptor affinity.
Membranes were prepared in the following way; the cells were rinsed with PBS and incubated with Versene for approximately 5 min before harvesting. The cells were flushed with PBS and the cell-suspension was centrifuged for 5 min at 1000 rpm. Cells were homogenized (Ultrathurrax) in a buffer containing 20 mM Na-HEPES and 10 mM EDTA (pH 7.4) and centrifuged at 20.000 rpm for 15 min. The resulting pellet was resuspended, homogenized and centrifuged (20.000 rpm, 15 min) in a buffer containing 20 mM Na-HEPES and 0.1 mM EDTA (pH 7.4, buffer 2). The resulting pellet was resuspended in buffer 2 and protein concentration was measured (BCA protein Assay, Pierce). The homogenate was kept cold during the whole procedure. The membranes were kept at −80° C. until use. Assay was performed in a 384 well Optiplate (PerkinElmer) in a total volume of 40 ul. Membranes were mixed with SPA beads.

rat calcitonin receptor [3] = target: T1, rat calcitonin receptor; experiment: SPA competition with 125I-calcitonin, membranes of BHK cells with rat calcitonin receptor (Assay VIII)
[4] = target: T3, rat amylin receptor (rat calcitonin …); experiment: SPA competition with 125I-rat amylin, membranes of BHK cells with rat calcitonin receptor + rat RAMP3 (Assay VI)
[5] = target: T4, human calcitonin receptor; experiment: SPA radioligand competition (125I-calcitonin), membranes of BHK cells with human calcitonin receptor
Method in brief: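 BHK hCTR membranes 35 ng/μL + SPA beads 0.05 mg/well; buffer 50 mM Hepes pH 7.4, 1 mM CaCl2, 5 mM MgCl₂, 0.1% OA, 0.02% Tween20. 120 min, 25° C., shaking. Scintillation count; IC50 by one-site binding competition.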

[6] = target: T4, human calcitonin receptor; experiment: ratio IC50 hCTR / IC50 hAmylin-R of the two SPA competition assays; reference: human amylin receptor
Method in brief: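 Membranes (35 ng/μL final) + SPA beads, 50 mM Hepes pH 7.4 buffer with 1 mM CaCl2, 5 mM MgCl₂, 0.1% OA, 0.02% Tween20; 120 min, 25° C, shaking; centrifuged, counted; IC₅₀ by one-site binding competition.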

| Ratio rCT/rAmylin binding (rat calcitonin receptor [1]) | Ratio hCT/hAmylin binding [2] | IC50 (rat calcitonin receptor [3]) [nM] | IC50 [4] [nM] | IC50 [5] [nM] | Ratio hCT/hAmylin binding [6] | Binder |
| --- | --- | --- | --- | --- | --- | --- |
| 54.5 | 29 | 96.4 | 1.77 |  |  | KCNTATCATQRLANFLRHSSPNFGAIPSSTNVGRNTY (C20 diacid-gGlu acylated on the alpha amino group of the N-terminal residue (Lys 1); disulfide Cys2-Cys7; C-terminal amide, Derivative of human amylin; also called compound 39) [N^α1-[(4S)-4-carboxy-4-(19-carboxynonadecanoylamino)butanoyl]-[Arg17,Pro21,Pro27,Arg34]-h-amylin] |
| 6.4 | 3.6 | 4.43 | 0.696 |  |  | {C20 diacid-γGlu-AEEA-AEEA}-KCNTATCATQRLAEFLRHSSPNFGAIPSSTNVGSNTP-NH2 (disulfide 2-7; SMILES CC[C@H](C)[C@H](NC(=O)[C@H](C)NC(=O)CNC(=O)[C@H](Cc1ccccc1)NC(=O)[C@H](CC(N)=O)NC(=O)[C@@H]1CCCN1C(=O)[C@H](CO)NC(=O)[C@H](CO)NC(=O)[C@H](Cc1c[nH]cn1)NC(=O)[C@H](CCCNC(=N)N)NC(=O)[C@H](CC(C)C)NC(=O)[C@H](Cc1ccccc1)NC(=O)[C@H](CCC(=O)O)NC(=O)[C@H](C)NC(=O)[C@H](CC(C)C)NC(=O)[C@H](CCCNC(=N)N)NC(=O)[C@H](CCC(N)=O)NC(=O)[C@@H](NC(=O)[C@H](C)NC(=O)[C@@H]1CSSC[C@H](NC(=O)[C@H](CCCCN)NC(=O)COCCOCCNC(=O)COCCOCCNC(=O)CC[C@H](NC(=O)CCCCCCCCCCCCCCCCCCC(=O)O)C(=O)O)C(=O)N[C@@H](CC(N)=O)C(=O)N[C@@H]([C@@H](C)O)C(=O)N[C@@H](C)C(=O)N[C@@H]([C@@H](C)O)C(=O)N1)[C@@H](C)O)C(=O)N1CCC[C@H]1C(=O)N[C@@H](CO)C(=O)N[C@@H](CO)C(=O)N[C@H](C(=O)N[C@@H](CC(N)=O)C(=O)N[C@H](C(=O)NCC(=O)N[C@@H](CO)C(=O)N[C@@H](CC(N)=O)C(=O)N[C@H](C(=O)N1CCC[C@H]1C(N)=O)[C@@H](C)O)C(C)C)[C@@H](C)O, Derivative of human amylin; also called compound 20) |
|  |  |  |  | 14.8 | 26.8 | K([AEEA-γGlu-C20 diacid])RCNTATCATQRLANFLRHSSPNFGAIPSSTNVGSHTY-NH2 (disulfide 3-8; N-terminus assumed; SMILES CC[C@H](C)[C@H](NC(=O)[C@H](C)NC(=O)CNC(=O)[C@H](Cc1ccccc1)NC(=O)[C@H](CC(N)=O)NC(=O)[C@@H]1CCCN1C(=O)[C@H](CO)NC(=O)[C@H](CO)NC(=O)[C@H](Cc1c[nH]cn1)NC(=O)[C@H](CCCNC(=N)N)NC(=O)[C@H](CC(C)C)NC(=O)[C@H](Cc1ccccc1)NC(=O)[C@H](CC(N)=O)NC(=O)[C@H](C)NC(=O)[C@H](CC(C)C)NC(=O)[C@H](CCCNC(=N)N)NC(=O)[C@H](CCC(N)=O)NC(=O)[C@@H](NC(=O)[C@H](C)NC(=O)[C@@H]1CSSC[C@H](NC(=O)[C@H](CCCNC(=N)N)NC(=O)[C@@H](N)CCCCNC(=O)COCCOCCNC(=O)CC[C@H](NC(=O)CCCCCCCCCCCCCCCCCCC(=O)O)C(=O)O)C(=O)N[C@@H](CC(N)=O)C(=O)N[C@@H]([C@@H](C)O)C(=O)N[C@@H](C)C(=O)N[C@@H]([C@@H](C)O)C(=O)N1)[C@@H](C)O)C(=O)N1CCC[C@H]1C(=O)N[C@@H](CO)C(=O)N[C@@H](CO)C(=O)N[C@H](C(=O)N[C@@H](CC(N)=O)C(=O)N[C@H](C(=O)NCC(=O)N[C@@H](CO)C(=O)N[C@@H](Cc1c[nH]cn1)C(=O)N[C@H](C(=O)N[C@@H](Cc1ccc(O)cc1)C(N)=O)[C@@H](C)O)C(C)C)[C@@H](C)O, Synthetic analogue, extended by Lys at the N-terminus; also called compound 45) |
|  |  |  |  | 30.9 | 69.7 | K([γGlu-C20 diacid])CNTATCATQRLANFLRHSSPNFGAIPSSTNVGSNTY-NH2 (disulfide 2-7; N-terminus assumed; SMILES CC[C@H](C)[C@H](NC(=O)[C@H](C)NC(=O)CNC(=O)[C@H](Cc1ccccc1)NC(=O)[C@H](CC(N)=O)NC(=O)[C@@H]1CCCN1C(=O)[C@H](CO)NC(=O)[C@H](CO)NC(=O)[C@H](Cc1c[nH]cn1)NC(=O)[C@H](CCCNC(=N)N)NC(=O)[C@H](CC(C)C)NC(=O)[C@H](Cc1ccccc1)NC(=O)[C@H](CC(N)=O)NC(=O)[C@H](C)NC(=O)[C@H](CC(C)C)NC(=O)[C@H](CCCNC(=N)N)NC(=O)[C@H](CCC(N)=O)NC(=O)[C@@H](NC(=O)[C@H](C)NC(=O)[C@@H]1CSSC[C@H](NC(=O)[C@@H](N)CCCCNC(=O)CC[C@H](NC(=O)CCCCCCCCCCCCCCCCCCC(=O)O)C(=O)O)C(=O)N[C@@H](CC(N)=O)C(=O)N[C@@H]([C@@H](C)O)C(=O)N[C@@H](C)C(=O)N[C@@H]([C@@H](C)O)C(=O)N1)[C@@H](C)O)C(=O)N1CCC[C@H]1C(=O)N[C@@H](CO)C(=O)N[C@@H](CO)C(=O)N[C@H](C(=O)N[C@@H](CC(N)=O)C(=O)N[C@H](C(=O)NCC(=O)N[C@@H](CO)C(=O)N[C@@H](CC(N)=O)C(=O)N[C@H](C(=O)N[C@@H](Cc1ccc(O)cc1)C(N)=O)[C@@H](C)O)C(C)C)[C@@H](C)O, Synthetic analogue; also called compound 48) [N^ε1-[(4S)-4-carboxy-4-(19-carboxynonadecanoylamino)butanoyl]-[Arg17,Pro21,Pro27]-h-amylin] |
